Test results: patent US20090196913A1, “Anti-Alpha-V Immunoliposome Composition, Methods, and Uses” (priority 2007, published 2009)

Target: murine αVβ3/5 integrin on the murine melanoma cell line B16-F10 (murine) (UniProt P43406)
Test: cell-based or functional assay
Design: IC50 of doxorubicin, cell viability, murine melanoma B16-F10, integrin targeted liposome-entrapped dox 90:1: unit not given beside the values

Chain of murine αVβ3/5 integrin on the murine melanoma cell line B16-F10 (murine) (P43406 31-1044): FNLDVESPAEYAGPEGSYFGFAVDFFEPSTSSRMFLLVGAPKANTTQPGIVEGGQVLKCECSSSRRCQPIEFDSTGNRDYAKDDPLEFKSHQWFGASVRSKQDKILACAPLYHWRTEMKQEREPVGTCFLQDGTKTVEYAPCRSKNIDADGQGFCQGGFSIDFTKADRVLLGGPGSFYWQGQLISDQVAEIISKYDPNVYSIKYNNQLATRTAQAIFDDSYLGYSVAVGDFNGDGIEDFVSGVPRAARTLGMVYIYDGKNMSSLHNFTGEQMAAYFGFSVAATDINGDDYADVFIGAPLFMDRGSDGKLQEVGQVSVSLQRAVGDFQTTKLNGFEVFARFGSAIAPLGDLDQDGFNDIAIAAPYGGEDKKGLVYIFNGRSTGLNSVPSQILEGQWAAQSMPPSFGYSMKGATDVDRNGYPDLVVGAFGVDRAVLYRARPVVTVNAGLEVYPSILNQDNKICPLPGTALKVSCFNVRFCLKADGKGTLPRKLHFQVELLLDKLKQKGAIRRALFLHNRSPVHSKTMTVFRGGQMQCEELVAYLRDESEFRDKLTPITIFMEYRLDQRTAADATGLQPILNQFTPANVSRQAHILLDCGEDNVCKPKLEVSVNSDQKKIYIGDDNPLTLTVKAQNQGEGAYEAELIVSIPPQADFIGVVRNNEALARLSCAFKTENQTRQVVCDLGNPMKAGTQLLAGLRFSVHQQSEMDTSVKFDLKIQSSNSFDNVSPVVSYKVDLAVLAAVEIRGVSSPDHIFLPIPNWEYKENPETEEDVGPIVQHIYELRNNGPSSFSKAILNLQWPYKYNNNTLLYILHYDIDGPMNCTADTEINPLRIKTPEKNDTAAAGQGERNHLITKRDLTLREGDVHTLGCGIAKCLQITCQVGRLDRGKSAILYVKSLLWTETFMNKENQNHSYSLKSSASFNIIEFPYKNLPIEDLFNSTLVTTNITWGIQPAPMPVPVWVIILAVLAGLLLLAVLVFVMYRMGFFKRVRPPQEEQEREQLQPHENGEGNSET

CNTO95 Fab′ (from pepsin cleavage, reduction and reoxidation) conjugated to PEG-DSPE on the surface of liposomes
IC50 of doxorubicin, cell viability, murine melanoma B16-F10, integrin targeted liposome-entrapped dox 90:1: > 200 | Increase (ratio of IC50 of liposome-entrapped doxorubicin to IC50 of 90:1 integrin-targeted liposomes), murine melanoma B16-F10: 1
